Reference: patent publication US20250027068
Residue numbers refer to the chain shown, from its start.

B1: PRT-77 (protein)
chain: MANQEIRYSEVTPYHVTSVWTKGVTPPTNFTQGEDVFHAPYVANQGWYDITKTFNGKDNLLCGAATAGNMLHWWFDQNKEEIERYLKKHPEKQKIMFGDQELLDVRKVINTKDDQKNSELFNYFRDKAFPGLSARRLGVMPDLVLDMFINGYYLNVGKTQTTDVNRTYQEKDKRGGIFDAVFTRGDQSKLLTSRHDFKEKNLKEISDLIKQELTEGKALGLSHTYANVRINHVINLWGADFDSNGNLEAIYVTDSDSNASIGMKKYFVGVNSAGKVAISAKEIEEDNIGAQVLGLFTLSTGQDIWNQTN
B2: PRT-78 (protein)
chain: MANQEIRYSEETPYHVTSVWTKGVTPPADFTQGEDVFHAPYVANQGWYDITKTFNGKDDLLCGAATAGNMLHWWFDQNKEYIEAYLKKHPEKQKIMFGDQELLDVRKAINTKGSQKNSELFNYFRDKAFPNLSARRLGVMPDLVLDMFINGYYLNVTKTQTTDVNRTYQEKDKRGGIFDAVFTRGDQSKLLTSRHDFKEKGLKEISDLIKQELTEGKALGLSHTYANVRINHVINLWGADFDSDGNLKAIYVTDSDSNASIGMKKYFVGVNSAGKVAISAKEIKEDNIGAQVLGLFTLSTGQDIWNQTN
B3: PRT-76 (protein)
chain: MANQEIRYSEVTPYHITSVWTKGVTPPAKFTQGEDVFHAPYVANQGWYDITKTFNGKDDLLCGAATAGNMLHWWFDQNKEEIEAYLKKHPEKQKIMFGDQELLDVRKVINTKDSQTNSALFNYFKDKAFPNLSARRLGVMPDLVLDMFINGYYLNVYKTQTTDVNRTYQTKDRRGGIFDAVFTRGDQSKLLTERHDFKEKTLKEISDLIKQELTEGKALGLSHTYANVRINHVINLWGADFDSNGNLEAIYVTDSDSNASIGMKKYFVGVNSAGKVAISAKEIKEDNIGAQVLGLFTLSTGQDIWNQTN
B4: PRT-81 (protein)
chain: MANQEIRYSEVTPSHVTSVWTKGVTPPADFTQGEDVFHAPYVANQGWYDITKTFNGKDNLLCGAATAGNMLHWWFDQNKEQIENYLKKHPEKQKIMFGDQELLDVRKVINTKDSQTNSALFNYFRDKAFPNLSARRLGVMPDLVLDMFINGYYLNLTKTQTTDVNRTYQTKDKRGGIFDAVFTRGDQSKLLTSRHDFKEKTLKEISDLIKQELTEGKALGLSHTYANVRINHVINLWGADFDSNGNLKAIYVTDSDSNASIGMKKYFVGVNSAGKVAISAKEITEDNIGAQVLGLFTLSTGKDQWNQTN
B5: PRT-112 (protein)
chain: MRNATEAYAKEVPHKITSVWTKGVTPLTPEQFRYNGEDVIHAPYLANQGWYDITKTFDGKDNLLCGAATAGNMLHWWFDQNKTEIEAYLKKHPEKQKIIFNNQELFDLKAAIDTKDSQTNSALFNYFKDKAFPNLSARQLGVMPDHVLDMFINGYYLNVFKTQSTDVNRPYQDKDKRGGIFDAVFTRGDQTKLLTARHDLKNKGLNEISTLIKQELTEGKALALSHTYANVSISHVINLWGADFNAEGNLEAIYVTDSDANASIGMKKYFVGVNASGKVAISAKKIEGENIGAQVLGLFTLSSGKDIWQKLS
B6: PRT-79 (protein)
chain: MANQEIRYSEVTPKTITSVWTKGVTPPAKFTQNEDVFHAPYVANQGWYDITKTFNGKDDLLCGAATAGNMLHWWFDQNKEQIEAYLKKHPEKQKIMFGDQELLDVRKVINTKDDQTNSELFNYFKDKAFPNLSARRLGVMPDLVLDMFINGYRLNVGKTQTTDVNRTYQDKDPRGGIFDAVFTRGDQSKLLTSRHDFKEKNLKEISDLIKQELTEGKALGLSHTYANVRINHVINLWGADFDSEGNLEAIYVTDSDSNASIGMKKYFVGVNSAGKVAISAKEIEEDNIGAQVLGLFTLSTGQDIWEQTN
B7: PRT-80 (protein)
chain: MANQEIRYSEVTPKHITSVWTKGVTPPTQFIQGEDVFHAPYKANQGWYDITKTFNGKDDLLCGAATAGNMLHWWFDQNKEEIEAYLKKHPEKQKIMFGDQELLDVRKAINTKDDQTNSELFNYFRDKAFPNLSARRLGVMPDHVLDMFINGYYLNVNKTQTTDVNRTYQEKDPRGGIFDAVFTRGDQSKLLTSRHDFKEKTLKEISDLIKQELTEGKALGLSHTYANVRINHVINLWGADFDSNGNLKAIYVTDSDSDASIGMKKYFVGVNSAGKVAISAKEIKGDNIGAQVLGLFTLSTGQDIWNQTN
B8: PRT-6 (protein)
chain: MANQEIRYSEVTPYHVTSVWTKGVTPPANFTQGEDVFHAPYVANQGWYDITKTFNGKDDLLCGAATAGNMLHWWFDQNKEQIERYLKEHPEKQKINFNGEQMFDVKEAIDTKNSQLDSKLFEYFKEKAFPYLSTKHLGVFPDHVIDMFINGYRLSLTNHGPTPVKEGSKDPRGGIFDAVFTRGDQSKLLTSRHDFKEKNLKEISDLIKKELTEGKALGLSHTYANVRINHVINLWGADFDSNGNLKAIYVTDSDSNASIGMKKYFVGVNSAGKVAISAKEIEGDNIGAQVLGLFTLSTGQDIWNQTN
B9: PRT-7 (protein)
chain: B8 chain with V11E, E80D, E88K, N113D, L116T, E282K, G283E, N304E
B10: PRT-8 (protein)
chain: B8 chain with A28T, V42I, E80D, I145L, K209Q, K246E, E282K, G283D
B11: PRT-9 (protein)
chain: B8 chain with V11E, N199T, G218A, E282K, G283E, T298S
B12: PRT-83 (protein)
chain: MANQEIRYSEETPYHVTSVWTKGVTPPEKFTQGEDVFHAPYVANQGWYDITKTFNGKDDLLCGAATAGNMLHWWFDQNKDQIEAYLSKHPEKQKIMFGDQELLDVRKAINTKDSQTNSELFNYFRDKAFPNLSARRLGVMPDLVLDMFINGYRLNVTKTQTTDVNETYQEKDKRGGIFDAVFTRGDQSKLLTSRHDFKEKTLNEISDLIKKELTEGKALGISHTYANVRINHVINLWGADFNSEGNLEAIYVTDSDSNASIGMKKYFVGVNSAGKVAISAKEIEEENIGAQVLGLFTLSTGQDIWQQTN
B13: PRT-82 (protein)
chain: MANQEIRYSEVTPSTITSVWTKGVTPPAQFIQNEDVFHAPYVANQGWYDITKTFNGKDDLLCGAATAGNMLHWWFDQNKEEIEAYLKKHPEKQKIMFGDQELLDVRKVINTKDDQTNSALFNYFKDKAFPNLSARRLGVMPDLVLDMFINGYYLNVGKTQTTDVNRTYQNKDRRGGIFDAVFTRGDQSKLLTARHDFKEKNLNEISDLIKQELTEGKALALSHTYANVSINHVINLWGADFDANGNLEAIYVTDSDSNASIGMKKYFVGVNSAGKVAISAKEIEEDNIGAQVLGLFTLSTGQDIWNKTN
B14: PRT-111 (protein)
chain: MRNATEAYAKEVPHQITSVWTKGVTPPTPEQFRYNNEDVFHAPYLAHQGWYDITKTFNGKDNLLCGAATAGNMLHWWFDQNKTEIEAYLKKHPEKQKIIFNNQELFDLKAAIDTKDSQTNSQLFNYFRDKAFPNLSARQLGVMPDLVLDMFINGYYLNVFKTQSTDVNRPYQDKDKRGGIFDAVFTRGDQTTLLTNRHDLKNKGLNDISTLIKQELTEGKALALSHTYANVSISHVINLWGADFNAEGNLEAIYVTDSDANASIGMKKYFVGINSAGHVAISAKKIEGENIGAQVLGLFTLSSGKDIWQKLS

Target: pooled human IgG

Row | Protein | Enzyme Activity Endpoint Assay (purified): Fab′2 [ng/µL] | Enzyme Activity Endpoint Assay (purified): Fc [ng/µL] | Enzyme Activity Endpoint Assay (purified): IgG [ng/µL] | Enzyme Activity Endpoint Assay (purified): scIgG [ng/µL] | Enzyme Activity Endpoint Assay (purified): Fab'2 [ng/µL] | Enzyme Activity Endpoint Assay: Fab′2 [ng/µL] | Enzyme Activity Endpoint Assay: Fc [ng/µL] | Enzyme Activity Endpoint Assay: IgG [ng/µL] | Enzyme Activity Endpoint Assay: scIgG [ng/µL]
1 | B1 | 33 | 104 | 14 | 17 | – | – | – | – | –
2 | B2 | 34 | 94 | 21 | 11 | – | – | – | – | –
3 | B3 | 20 | 78 | 37 | 38 | – | – | – | – | –
4 | B4 | 14 | 67 | 30 | 56 | – | – | – | – | –
5 | B5 | – | 152 | 15 | 0 | 435 | – | – | – | –
6 | B6 | 0 | 44 | 72 | 38 | – | – | – | – | –
7 | B7 | 15 | 70 | 29 | 34 | – | – | – | – | –
8 | B8 | – | – | – | – | – | 49 | 129 | 16 | 15
9 | B9 | – | – | – | – | – | 50 | 137 | 18 | 16
10 | B10 | – | – | – | – | – | 50 | 127 | 16 | 16
11 | B11 | – | – | – | – | – | 39 | 103 | 21 | 32
12 | B12 | 0 | 44 | 42 | 40 | – | – | – | – | –
13 | B13 | 9 | 67 | 15 | 60 | – | – | – | – | –
14 | B14 | – | 133 | 26 | 0 | 328 | – | – | – | –
